# Measurements as given in PMC9160799, “PET Imaging of Acidic Tumor Environment With ^89Zr-labeled pHLIP Probes” (Frontiers in Oncology, 2022).
# Tests used:
# [1] = type: in vitro ADME, human
# Protocol: A potential degradation of the compounds was investigated by serum stability assay. For this, 100 µL of the prepared PBS solution (containing 1.2 nmol of pHLIP and 7.4 MBq/200 µCi) was added to 900 µL of human serum (heat inactivated from Millipore Sigma) and incubated for seven days at 37°C. The release of free ^89Zr^4+ was measured by radio instant thin-layer chromatography (as described above) and the degradation of the whole construct was checked by radio high-performance liquid chromatography (HPLC). The analytical reverse-phase HPLC was performed on a Shimadzu system equipped with a Flow Count PIN diode radiodetector from BioScan, a DGU-20A degasser, two LC-20AB pumps, and an SPD-M20A photodiode array detector. A BetaBasic 18 column (150 Å, 5.0 µm, 4.6×150 mm, Thermo Scientific) was used with water (+ 0.1% trifluoroacetic acid) and acetonitrile (+ 0.1% trifluoroacetic acid) as solvents. The gradient started at 5% acetonitrile and increased to 95% over 15 minutes at a constant flowrate of 1 mL/min. The radiochemical purities of all ^89Zr-radiolabeled pHLIP conjugates were greater than 90% over the course of seven days.
# 4T1 tumor allografts [2] = system: 4T1 tumor allografts; parameters: species or system female athymic nude mice; details: mouse, in vivo, iv
# [3] = Post-mortem biodistribution, RM-1 tumor model; type: in vivo, male athymic nude mice; details: male, athymic nude, mouse, in vivo, iv, 1.2 nmol, total radioactivity
# Protocol: (§1) The media were provided by the MSK Media Preparation Core. […] Another aliquot was diluted with the medium so that 50 µL contained 1×10^6 cells.
# (§2) The imaging and biodistribution studies were performed with male (RM-1 model) and female (4T1 model) athymic nude mice and the kidney-blocking experiments were performed with female SCID mice received from Charles River Laboratories (Stone Ridge, NY). After arrival, the mice were kept in the MSK vivarium for one week before any experimental handling was performed. The animals were allowed free access to water and food, and all animal care and experimental procedures were approved by the Institutional Animal Care and Use Committee (IACUC). For the subcutaneous allografts, a 1-to-1 ratio of Corning Matrigel Matrix and the cell solution was prepared and stored on ice for the injections. Each mouse received a subcutaneous injection of 100 µL (50 µL cell solution, viability > 90%, + 50 µL Matrigel) into the flank on the level of the right shoulder. The injections were performed under anesthesia (2% isoflurane, Baxter Healthcare, Deerfield, IL, USA).
# (§3) The mice were intravenously injected (tail vein) with the radiolabeled pHLIP conjugates (1.2 nmol, 7.4 MBq/200 µCi, 100 µL, in sterile filtered PBS). The activity of the syringe prior to injection and after injection was used to determine the percent of injectate administered.
# (§4) For the biodistribution studies the tumor-bearing mice were randomized before the injections. Only mice with suitable tumors (150–300 mm^3) were utilized. An exception was made for the 120-hour timepoint, for which only mice with smaller tumors (150 mm^3) were selected. The mice were grouped in cohorts of four. At the respective timepoint, the mice were euthanized (by CO2 asphyxiation, followed by cervical dislocation) and their blood was collected by cardiac puncture as a terminal procedure, followed by quick removal of the tumors. After this, the other organs/samples were collected. […] The exact activities of all samples of one mouse were determined by an Capintec® CRC-55tR dose calibrator. These decay-corrected measurements were used to determine a calibration factor and calibrate all counts to the corresponding activities. Activity concentrations were calculated as percentage injected dose per tissue weight (%ID/g wet tissue). All data was processed and visualized using Origin 8.5.
# in vivo = test: in vivo; parameters: species or system female athymic nude mice; details: female, athymic nude, mouse, iv, 1.2 nmol, total radioactivity
# Protocol: as §1, §2, §3, §4
# 4T1 tumor allografts [4] = test: in vivo; parameters: species or system female athymic nude mice; details: mouse, iv
# Protocol: as §1, §2, §3, §4
# RM-1 tumor allografts = test: Post-mortem biodistribution, RM-1 tumor model; type: in vivo, male athymic nude mice; details: mouse, in vivo, iv, 1.2 nmol, 48 h
# Protocol: as §1, §2, §3, §4
compound,measurement,setting,value
"CC(=O)N(O)CCCCCNC(=O)CCC(=O)N(O)CCCCCNC(=O)CCC(=O)N(O)CCCCCNC(=O)CCN1C(=O)CC(SC[C@@H](NC(=O)[C@@H](C)N)C(=O)N[C@H](CC(=O)O)C(=O)N[C@H](CC(=O)O)C(=O)N[C@H](CCC(N)=O)C(=O)N[C@H](CC(N)=O)C(=O)N2CCC[C@@H]2C(=O)N[C@H](Cc2c[nH]c3ccccc23)C(=O)N[C@H](CCCNC(=N)N)C(=O)N[C@H](C)C(=O)N[C@H](Cc2ccc(O)cc2)C(=O)N[C@H](CC(C)C)C(=O)N[C@H](CC(=O)O)C(=O)N[C@H](CC(C)C)C(=O)N[C@H](CC(C)C)C(=O)N[C@H](Cc2ccccc2)C(=O)N2CCC[C@@H]2C(=O)N[C@@H](C(=O)N[C@H](CC(=O)O)C(=O)N[C@@H](C(=O)N[C@H](CC(C)C)C(=O)N[C@H](CC(C)C)C(=O)N[C@H](CC(C)C)C(=O)N[C@H](CC(=O)O)C(=O)N[C@H](CC(C)C)C(=O)N[C@H](CC(C)C)C(=O)N[C@H](Cc2c[nH]c3ccccc23)C(=O)O)[C@H](C)O)[C@H](C)O)C1=O (some centres unmarked) (89Zr complex, metal not drawn) [DFO-Cys-Var3]",radiochemical purity after incubation in human serum,[1],> 90%
same,biological half-life for total body excretion,4T1 tumor allografts [2],415 ± 10 hours
same,tissue uptake at 48 h,"[3]; RM-1, male athymic nude mice, 48 h p.i., i.v. 1.2 nmol, 7.4 MBq, gamma counting, mean ± S.D., n=4, read-out: Brain uptake",0.08 ± 0.01 %ID/g
same,tissue uptake at 48 h,"[3]; RM-1, male athymic nude mice, 48 h p.i., i.v. 1.2 nmol, 7.4 MBq, gamma counting, mean ± S.D., n=4, read-out: Pancreas uptake",0.7 ± 0.1 %ID/g
same,tissue uptake at 48 h,[3]; Tibia uptake,1.4 ± 0.1 %ID/g
same,tissue uptake at 4 h,in vivo; Blood uptake,16.1 ± 0.6 %ID/g
same,tissue uptake at 24 h,in vivo; Blood uptake,5.8 ± 0.5 %ID/g
same,tissue uptake at 48 h,in vivo; Blood uptake,2.2 ± 0.1 %ID/g
same,tissue uptake at 72 h,in vivo; Blood uptake,1 ± 0.1 %ID/g
same,tissue uptake at 120 h,in vivo; Blood uptake,0.2 ± 0.05 %ID/g
same,tissue uptake at 4 h,in vivo; Heart uptake,4.2 ± 0.5 %ID/g
same,tissue uptake at 24 h,in vivo; Heart uptake,3 ± 0.4 %ID/g
same,tissue uptake at 48 h,in vivo; Heart uptake,2.6 ± 0.1 %ID/g
same,tissue uptake at 72 h,in vivo; Heart uptake,1.9 ± 0.2 %ID/g
same,tissue uptake at 120 h,in vivo; Heart uptake,1.6 ± 0.3 %ID/g
same,tissue uptake at 4 h,in vivo; Kidneys uptake,19.8 ± 3.3 %ID/g
same,tissue uptake at 24 h,in vivo; Kidneys uptake,44.3 ± 6.5 %ID/g
same,tissue uptake at 48 h,in vivo; Kidneys uptake,47.6 ± 11.5 %ID/g
same,tissue uptake at 72 h,in vivo; Kidneys uptake,46.3 ± 8.3 %ID/g
same,tissue uptake at 120 h,in vivo; Kidneys uptake,35.3 ± 5.9 %ID/g
same,tissue uptake at 4 h,in vivo; Liver uptake,4.8 ± 0.4 %ID/g
same,tissue uptake at 24 h,in vivo; Liver uptake,6.1 ± 0.7 %ID/g
same,tissue uptake at 48 h,in vivo; Liver uptake,6.6 ± 0.1 %ID/g
same,tissue uptake at 72 h,in vivo; Liver uptake,6.7 ± 0.7 %ID/g
same,tissue uptake at 120 h,in vivo; Liver uptake,6 ± 0.3 %ID/g
same,tissue uptake at 4 h,in vivo; Lungs uptake,11.2 ± 2 %ID/g
same,tissue uptake at 24 h,in vivo; Lungs uptake,3.8 ± 0.9 %ID/g
same,tissue uptake at 48 h,in vivo; Lungs uptake,2.7 ± 0.3 %ID/g
same,tissue uptake at 72 h,in vivo; Lungs uptake,2 ± 0.1 %ID/g
same,tissue uptake at 120 h,in vivo; Lungs uptake,1.8 ± 0.3 %ID/g
same,tissue uptake at 24 h,in vivo; Pancreas uptake,1.8 ± 0.2 %ID/g
same,tissue uptake at 48 h,in vivo; Pancreas uptake,1.5 ± 0.4 %ID/g
same,tissue uptake at 72 h,in vivo; Pancreas uptake,1.5 ± 0.2 %ID/g
same,tissue uptake at 120 h,in vivo; Pancreas uptake,1.4 ± 0.1 %ID/g
same,tissue uptake at 4 h,in vivo; Skin uptake,2.7 ± 0.6 %ID/g
same,tissue uptake at 24 h,in vivo; Skin uptake,3.7 ± 0.4 %ID/g
same,tissue uptake at 48 h,in vivo; Skin uptake,3.9 ± 0.7 %ID/g
same,tissue uptake at 72 h,in vivo; Skin uptake,3.5 ± 0.6 %ID/g
same,tissue uptake at 120 h,in vivo; Skin uptake,3.7 ± 0.1 %ID/g
same,tissue uptake at 4 h,in vivo; Spleen uptake,2.7 ± 0.5 %ID/g
same,tissue uptake at 24 h,in vivo; Spleen uptake,4.1 ± 0.7 %ID/g
same,tissue uptake at 48 h,in vivo; Spleen uptake,5.1 ± 2 %ID/g
same,tissue uptake at 72 h,in vivo; Spleen uptake,4.3 ± 0.4 %ID/g
same,tissue uptake at 120 h,in vivo; Spleen uptake,6.1 ± 1 %ID/g
same,tissue uptake at 4 h,in vivo; Tibia uptake,1.8 ± 0.2 %ID/g
same,tissue uptake at 24 h,in vivo; Tibia uptake,1.8 ± 0.06 %ID/g
same,tissue uptake at 48 h,in vivo; Tibia uptake,1.5 ± 0.4 %ID/g
same,tissue uptake at 72 h,in vivo; Tibia uptake,1.6 ± 0.2 %ID/g
same,tissue uptake at 4 h,in vivo; Tumor uptake,5.6 ± 0.8 %ID/g
same,tissue uptake at 24 h,in vivo; Tumor uptake,9.4 ± 1.2 %ID/g
same,tissue uptake at 48 h,in vivo; Tumor uptake,9.7 ± 1.7 %ID/g
same,tissue uptake at 72 h,in vivo; Tumor uptake,9.1 ± 1 %ID/g
same,tissue uptake at 120 h,in vivo; Tumor uptake,6.8 ± 0.7 %ID/g
same,(biological) blood clearance half-life,4T1 tumor allografts [4],16.0 ± 0.4 hours
"CC(=O)N[C@H](C)C(=O)N[C@H](CCCCNc1c(NCCCCCN(O)C(=O)CCC(=O)NCCCCCN(O)C(=O)CCC(=O)NCCCCCN(O)C(C)=O)c(=O)c1=O)C(=O)N[C@H](CC(=O)O)C(=O)N[C@H](CC(=O)O)C(=O)N[C@H](CCC(N)=O)C(=O)N[C@H](CC(N)=O)C(=O)N1CCC[C@@H]1C(=O)N[C@H](Cc1c[nH]c2ccccc12)C(=O)N[C@H](CCCNC(=N)N)C(=O)N[C@H](C)C(=O)N[C@H](Cc1ccc(O)cc1)C(=O)N[C@H](CC(C)C)C(=O)N[C@H](CC(=O)O)C(=O)N[C@H](CC(C)C)C(=O)N[C@H](CC(C)C)C(=O)N[C@H](Cc1ccccc1)C(=O)N1CCC[C@@H]1C(=O)N[C@@H](C(=O)N[C@H](CC(=O)O)C(=O)N[C@@H](C(=O)N[C@H](CC(C)C)C(=O)N[C@H](CC(C)C)C(=O)N[C@H](CC(C)C)C(=O)N[C@H](CC(=O)O)C(=O)N[C@H](CC(C)C)C(=O)N[C@H](CC(C)C)C(=O)N[C@H](Cc1c[nH]c2ccccc12)C(=O)N[C@H](C)C(=O)O)[C@H](C)O)[C@H](C)O (89Zr complex, metal not drawn) [DFOsqa-Lys-Var3]",tissue uptake at 48 h,[3]; Blood uptake,0.3 ± 0.03 %ID/g
same,tissue uptake at 48 h,[3]; Brain uptake,0.06 ± 0.02 %ID/g
same,tissue uptake at 48 h,[3]; Heart uptake,1.6 ± 0.1 %ID/g
same,tissue uptake at 48 h,[3]; Kidneys uptake,82.5 ± 14.2 %ID/g
same,tissue uptake at 48 h,[3]; Liver uptake,10.8 ± 2.1 %ID/g
same,tissue uptake at 48 h,[3]; Lungs uptake,2.5 ± 0.6 %ID/g
same,tissue uptake at 48 h,[3]; Pancreas uptake,1.2 ± 0.1 %ID/g
same,tissue uptake at 48 h,[3]; Skin uptake,2.1 ± 0.07 %ID/g
same,tissue uptake at 48 h,[3]; Spleen uptake,6.4 ± 1.4 %ID/g
same,tissue uptake at 48 h,[3]; Tibia uptake,1.6 ± 0.1 %ID/g
same,Tumor uptake,RM-1 tumor allografts,12.4 ± 4.7 %ID/g
same,tissue uptake at 48 h,in vivo; Blood uptake,0.4 ± 0.01 %ID/g
same,tissue uptake at 48 h,in vivo; Brain uptake,0.04 ± 0.01 %ID/g
same,tissue uptake at 48 h,in vivo; Heart uptake,1.3 ± 0.06 %ID/g
same,tissue uptake at 48 h,in vivo; Kidneys uptake,82.5 ± 10.9 %ID/g
same,tissue uptake at 48 h,in vivo; Liver uptake,11.2 ± 1 %ID/g
same,tissue uptake at 48 h,in vivo; Lungs uptake,1.4 ± 0.2 %ID/g
same,tissue uptake at 48 h,in vivo; Muscle uptake,0.5 ± 0.04 %ID/g
same,tissue uptake at 48 h,in vivo; Pancreas uptake,0.8 ± 0.1 %ID/g
same,tissue uptake at 48 h,in vivo; Skin uptake,2.6 ± 0.4 %ID/g
same,tissue uptake at 48 h,in vivo; Spleen uptake,6.9 ± 0.6 %ID/g
same,tissue uptake at 48 h,in vivo; Tibia uptake,1.5 ± 0.2 %ID/g
same,tissue uptake at 48 h,in vivo; Tumor uptake,10.2 ± 1.2 %ID/g
